We go through 16 molecules from US20070072239A1 (Pfizer, published 2007).

For this experiment, the target named is T1, Wnt3 (human, UniProt P56703 22-355 at identity 1.00), limits assumed).
T1 chain: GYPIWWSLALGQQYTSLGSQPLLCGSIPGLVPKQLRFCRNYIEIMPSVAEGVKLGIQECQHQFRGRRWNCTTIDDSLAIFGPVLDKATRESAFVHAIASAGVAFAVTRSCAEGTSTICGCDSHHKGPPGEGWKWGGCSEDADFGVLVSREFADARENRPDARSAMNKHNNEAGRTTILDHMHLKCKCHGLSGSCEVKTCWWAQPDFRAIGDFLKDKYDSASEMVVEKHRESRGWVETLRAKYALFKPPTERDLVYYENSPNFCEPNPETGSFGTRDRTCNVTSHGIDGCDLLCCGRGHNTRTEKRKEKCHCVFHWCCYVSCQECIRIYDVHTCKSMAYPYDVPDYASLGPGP
The experiment in a line: cell-based or functional assay.

B1: human SFRP-2 (receptor)
chain: LFLFGQPDFSYKRSNCKPIPANLQLCHGIEYQNMRLPNLLGHETMKEVLEQAGAWIPLVMKQCHPDTKKFLCSLFAPVCLDDLDETIQPCHSLCVQVKDRCAPVMSAFGFPWPDMLECDRFPQDNDLCIPLASSDHLLPATEEAPKVCEACKNKNDDDNDIMETLCKNDFALKIKVKEITYINRDTKIILETKSKTIYKLNGVSERDLKKSVLWLKDSLQCTCEEMNDINAPYLVMGQKQGGELVITSVKRWQKGQREFKRISRSIRKLQC
For the molecule B1, the inhibition of Wnt3-mediated upregulation of the 16xTCF-Luciferase activity, relative to SFRP-1 (% less active) came to 25.

B2: 3' His tagged SFRP-1 (receptor)
chain: SEYDYVSFQSDIGPYQSGRFYTKPPQCVDIPADLRLCHNVGYKKMVLPNLLEHETMAEVKQQASSWVPLLNKNCHAGTQVFLCSLFAPVCLDRPIYPCRWLCEAVRDSCEPVMQFFGFYWPEMLKCDKFPEGDVCIAMTPPNATEASKPQGTTVCPPCDNELKSEAIIEHLCASEFALRMKIKEVKKENGDKKIVPKKKKPLKLGPIKKKDLKKLVLYLKNGADCPCHQLDNLSHHFLIMGRKVKSQYLLTAIHKWDKKNKEFKNFMKKMKNHECPTFQSVFKHHHHHH
As for B2, the loss of Wnt inhibitory function relative to SFRP-1 (TCF-Luciferase reporter) (% loss of function) amounted to 30.

B3: hOB SFRP-1 (human osteoblast secreted frizzled-related protein-1), wild-type full length (receptor)
chain: SEYDYVSFQSDIGPYQSGRFYTKPPQCVDIPADLRLCHNVGYKKMVLPNLLEHETMAEVKQQASSWVPLLNKNCHAGTQVFLCSLFAPVCLDRPIYPCRWLCEAVRDSCEPVMQFFGFYWPEMLKCDKFPEGDVCIAMTPPNATEASKPQGTTVCPPCDNELKSEAIIEHLCASEFALRMKIKEVKKENGDKKIVPKKKKPLKLGPIKKKDLKKLVLYLKNGADCPCHQLDNLSHHFLIMGRKVKSQYLLTAIHKWDKKNKEFKNFMKKMKNHECPTFQSVFK
Turning to B3, the inhibition of the Wnt-mediated upregulation of the 16xTCF-Luciferase reporter in U2OS cells was 90 % inhibition.

B4: SFRP-1 tyrosine 73 to asparagine mutant (receptor)
chain: SEYDYVSFQSDIGPYQSGRFYTKPPQCVDIPADLRLCHNVGNKKMVLPNLLEHETMAEVKQQASSWVPLLNKNCHAGTQVFLCSLFAPVCLDRPIYPCRWLCEAVRDSCEPVMQFFGFYWPEMLKCDKFPEGDVCIAMTPPNATEASKPQGTTVCPPCDNELKSEAIIEHLCASEFALRMKIKEVKKENGDKKIVPKKKKPLKLGPIKKKDLKKLVLYLKNGADCPCHQLDNLSHHFLIMGRKVKSQYLLTAIHKWDKKNKEFKNFMKKMKNHECPTFQSVFK
Take B4: the Wnt antagonist function compared to the wild type SFRP-1 (TCF-Luciferase reporter) (% of wild type SFRP-1) turned out to be 40.

B5: SFRP-1 tyrosine 73 to phenylalanine mutant (receptor)
chain: SEYDYVSFQSDIGPYQSGRFYTKPPQCVDIPADLRLCHNVGFKKMVLPNLLEHETMAEVKQQASSWVPLLNKNCHAGTQVFLCSLFAPVCLDRPIYPCRWLCEAVRDSCEPVMQFFGFYWPEMLKCDKFPEGDVCIAMTPPNATEASKPQGTTVCPPCDNELKSEAIIEHLCASEFALRMKIKEVKKENGDKKIVPKKKKPLKLGPIKKKDLKKLVLYLKNGADCPCHQLDNLSHHFLIMGRKVKSQYLLTAIHKWDKKNKEFKNFMKKMKNHECPTFQSVFK
The molecule B5 displayed a loss of Wnt antagonist function relative to SFRP-1 (TCF-Luciferase reporter) (% loss of function) of 20.

B6: SFRP-1 CRD mutant LLEHE (amino acids 81-85) to HLHHS (receptor)
chain: SEYDYVSFQSDIGPYQSGRFYTKPPQCVDIPADLRLCHNVGYKKMVLPNHLHHSTMAEVKQQASSWVPLLNKNCHAGTQVFLCSLFAPVCLDRPIYPCRWLCEAVRDSCEPVMQFFGFYWPEMLKCDKFPEGDVCIAMTPPNATEASKPQGTTVCPPCDNELKSEAIIEHLCASEFALRMKIKEVKKENGDKKIVPKKKKPLKLGPIKKKDLKKLVLYLKNGADCPCHQLDNLSHHFLIMGRKVKSQYLLTAIHKWDKKNKEFKNFMKKMKNHECPTFQSVFK
On to B6, for which the loss of Wnt3 antagonist activity relative to SFRP-1 (TCF-Luciferase reporter) (% loss of activity) amounted to 30.

B7: SFRP-1 tyrosine 73 to aspartate mutant (receptor)
chain: SEYDYVSFQSDIGPYQSGRFYTKPPQCVDIPADLRLCHNVGDKKMVLPNLLEHETMAEVKQQASSWVPLLNKNCHAGTQVFLCSLFAPVCLDRPIYPCRWLCEAVRDSCEPVMQFFGFYWPEMLKCDKFPEGDVCIAMTPPNATEASKPQGTTVCPPCDNELKSEAIIEHLCASEFALRMKIKEVKKENGDKKIVPKKKKPLKLGPIKKKDLKKLVLYLKNGADCPCHQLDNLSHHFLIMGRKVKSQYLLTAIHKWDKKNKEFKNFMKKMKNHECPTFQSVFK
The molecule B7 displayed a Wnt antagonist function compared to the wild type SFRP-1 (TCF-Luciferase reporter) (% of wild type SFRP-1) of 40.

B8: SFRP-1 mutant with a total of 10 lysine residues in the hyaluronan domain changed into alanine (receptor)
chain: SEYDYVSFQSDIGPYQSGRFYTKPPQCVDIPADLRLCHNVGYKKMVLPNLLEHETMAEVKQQASSWVPLLNKNCHAGTQVFLCSLFAPVCLDRPIYPCRWLCEAVRDSCEPVMQFFGFYWPEMLKCDKFPEGDVCIAMTPPNATEASKPQGTTVCPPCDNELKSEAIIEHLCASEFALRMKIKEVKKENGDKKIVPAAAAPLALGPIAAADLAALVLYLKNGADCPCHQLDNLSHHFLIMGRKVKSQYLLTAIHKWDKKNKEFKNFMKKMKNHECPTFQSVFK
On to B8, for which the loss of Wnt3 antagonist activity relative to SFRP-1 (TCF-Luciferase reporter) (% loss of activity) was 35.

B9: SFRP-1 CRD mutant … to … (receptor)
chain: SEYDYVSFQSDIGPYQSGRFYTKPPQCVDIPADLRLCKSLPWNMTKMPNLLEHETMAEVKQQASSWVPLLNKNCHAGTQVFLCSLFAPVCLDRPIYPCRWLCEAVRDSCEPVMQFFGFYWPEMLKCDKFPEGDVCIAMTPPNATEASKPQGTTVCPPCDNELKSEAIIEHLCASEFALRMKIKEVKKENGDKKIVPKKKKPLKLGPIKKKDLKKLVLYLKNGADCPCHQLDNLSHHFLIMGRKVKSQYLLTAIHKWDKKNKEFKNFMKKMKNHECPTFQSVFK
B9 came in with a loss of Wnt3 antagonist activity relative to SFRP-1 (TCF-Luciferase reporter) (% loss of activity) of 45.

B10: SFRP-1 tyrosine 73 to serine mutant (receptor)
chain: SEYDYVSFQSDIGPYQSGRFYTKPPQCVDIPADLRLCHNVGSKKMVLPNLLEHETMAEVKQQASSWVPLLNKNCHAGTQVFLCSLFAPVCLDRPIYPCRWLCEAVRDSCEPVMQFFGFYWPEMLKCDKFPEGDVCIAMTPPNATEASKPQGTTVCPPCDNELKSEAIIEHLCASEFALRMKIKEVKKENGDKKIVPKKKKPLKLGPIKKKDLKKLVLYLKNGADCPCHQLDNLSHHFLIMGRKVKSQYLLTAIHKWDKKNKEFKNFMKKMKNHECPTFQSVFK
As to B10, the Wnt antagonist function compared to the wild type SFRP-1 (TCF-Luciferase reporter) (% of wild type SFRP-1) was 40.

B11: SFRP-1 hyaluronan-binding domain mutant, distal lysine residues to alanine (receptor)
chain: SEYDYVSFQSDIGPYQSGRFYTKPPQCVDIPADLRLCHNVGYKKMVLPNLLEHETMAEVKQQASSWVPLLNKNCHAGTQVFLCSLFAPVCLDRPIYPCRWLCEAVRDSCEPVMQFFGFYWPEMLKCDKFPEGDVCIAMTPPNATEASKPQGTTVCPPCDNELKSEAIIEHLCASEFALRMKIKEVKKENGDKKIVPKKKKPLKLGPIAAADLAALVLYLKNGADCPCHQLDNLSHHFLIMGRKVKSQYLLTAIHKWDKKNKEFKNFMKKMKNHECPTFQSVFK
For B11, the loss of Wnt3 antagonist activity relative to SFRP-1 (TCF-Luciferase reporter) (% loss of activity) was determined as 15.

B12: SFRP-1 tyrosine 73 to alanine mutant (receptor)
chain: SEYDYVSFQSDIGPYQSGRFYTKPPQCVDIPADLRLCHNVGAKKMVLPNLLEHETMAEVKQQASSWVPLLNKNCHAGTQVFLCSLFAPVCLDRPIYPCRWLCEAVRDSCEPVMQFFGFYWPEMLKCDKFPEGDVCIAMTPPNATEASKPQGTTVCPPCDNELKSEAIIEHLCASEFALRMKIKEVKKENGDKKIVPKKKKPLKLGPIKKKDLKKLVLYLKNGADCPCHQLDNLSHHFLIMGRKVKSQYLLTAIHKWDKKNKEFKNFMKKMKNHECPTFQSVFK
For the molecule B12, the Wnt antagonist function compared to the wild type SFRP-1 (TCF-Luciferase reporter) (% of wild type SFRP-1) was 40.

B13: SFRP-1 CRD mutant KKMVL to NMTKM (receptor)
chain: SEYDYVSFQSDIGPYQSGRFYTKPPQCVDIPADLRLCHNVGYNMTKMPNLLEHETMAEVKQQASSWVPLLNKNCHAGTQVFLCSLFAPVCLDRPIYPCRWLCEAVRDSCEPVMQFFGFYWPEMLKCDKFPEGDVCIAMTPPNATEASKPQGTTVCPPCDNELKSEAIIEHLCASEFALRMKIKEVKKENGDKKIVPKKKKPLKLGPIKKKDLKKLVLYLKNGADCPCHQLDNLSHHFLIMGRKVKSQYLLTAIHKWDKKNKEFKNFMKKMKNHECPTFQSVFK
The molecule B13 returned a loss of Wnt3 antagonist activity relative to SFRP-1 (TCF-Luciferase reporter) (% loss of activity) of 60.

B14: truncated SFRP-1 (Δ167-314) containing the CRD alone (receptor)
chain: SEYDYVSFQSDIGPYQSGRFYTKPPQCVDIPADLRLCHNVGYKKMVLPNLLEHETMAEVKQQASSWVPLLNKNCHAGTQVFLCSLFAPVCLDRPIYPCRWLCEAVRDSCEPVMQFFGFYWPEMLKCDKFPEGDVC
As for B14, the “Wnt antagonist activity relative to full length SFRP-1 (TCF-Luciferase reporter, U2OS cells)” value was ~80 % of full length SFRP-1 activity.

B15: human SFRP-3 (receptor)
chain: AACEPVRIPLCKSLPWNMTKMPNHLHHSTQDNAILAIEQFEGLLGTHCSPDLLFFLCAMYAPICTIDFQHEPIKPCKSVCERARQGCEPILIKYRHSWPENLACEELPVYDRGVCISPEAIVTADGADFPMDSSNGNCRGASSERCKCKPIRATQKTYFRNNYNYVIRAKVKEIKTKCHDVTAVVEVKEILKSSLVNIPRDTVNLYTSSGCLCPPLNVNEEYIIMGYEDEERSRLLLVEGSIAEKWKDRLGKKVKRWDMKLRHLGLSKSDSSNSDSTQSQKSGRNSNPRQARN
B15 had a Wnt3 antagonist function relative to SFRP-1 (TCF-Luciferase reporter) (% less active) of 60.

B16: SFRP-1/SFRP-2(1-295/285-295) chimera (receptor)
chain: SEYDYVSFQSDIGPYQSGRFYTKPPQCVDIPADLRLCHNVGYKKMVLPNLLEHETMAEVKQQASSWVPLLNKNCHAGTQVFLCSLFAPVCLDRPIYPCRWLCEAVRDSCEPVMQFFGFYWPEMLKCDKFPEGDVCIAMTPPNATEASKPQGTTVCPPCDNELKSEAIIEHLCASEFALRMKIKEVKKENGDKKIVPKKKKPLKLGPIKKKDLKKLVLYLKNGADCPCHQLDNLSHHFLIMGRKVKSQYLLTAIHKWDKKNKEFKRISRSIRKLQC
Take B16: the “Wnt3 inhibitory activity relative to SFRP-1 (TCF-Luciferase reporter)” value was ~20 % of SFRP-1 activity and the “loss of Wnt3 antagonist activity relative to SFRP-1 (TCF-Luciferase reporter)” value was ~70 % loss of activity.
